The target in this test is protein G´e (protein G prime e, extended). Kind of test: MST.

For the substance IgG (antibody), the dissociation constant Kd (as a rule, the equilibrium constant for the complex coming apart) came out at 9.4 nM.

The record behind these values is article PMC5201196.
